Measurements from article PMC10872586 (Cell reports, 2023).

B1: CR9114 Fab (positive control) (Fab, V domains shown)
VH: QVQLVQSGAEVKKPGSSVKVSCKSSGGTSNNYAISWVRQAPGQGLDWMGGISPIFGSTAYAQKFQGRVTISADIFSNTAYMELNSLTSEDTAVYFCARHGNYYYYSGMDVWGQGTTVTVSS
VL: QSALTQPPAVSGTPGQRVTISCSGSDSNIGRRSVNWYQQFPGTAPKLLIYSNDQRPSVVPDRFSGSKSGTSASLAISGLQSEDEAEYYCAAWDDSLKGAVFGGGTQLTVL
notes: source: Expi293F, co-transfected, purified (CaptureSelect CH1-XL)
B2: CR9114 with germline heavy chain, Fab (Fab, V domains shown)
VH: QVQLVQSGAEVKKPGSSVKVSCKASGGTFSSYAISWVRQAPGQGLEWMGGIIPIFGTANYAQKFQGRVTITADKSTSTAYMELSSLRSEDTAVYYCARHGNYYYYYGMDVWGQGTTVTVSS
VL: SYVLTQPPAVSGTPGQRVTISCSGSDSNIGRRSVNWYQQFPGTAPKLLIYSNDQRPSVVPDRFSGSKSGTSASLAISGLQSEDEAEYYCAAWDDSLKGAVFGGGTQLTVL
notes: also called CR9114 gHC; WT; source: Expi293F, co-transfected, purified (CaptureSelect CH1-XL)
B3: CR9114 gHC Fab VL A96W (Fab, V domains shown)
VH: QVQLVQSGAEVKKPGSSVKVSCKASGGTFSSYAISWVRQAPGQGLEWMGGIIPIFGTANYAQKFQGRVTITADKSTSTAYMELSSLRSEDTAVYYCARHGNYYYYYGMDVWGQGTTVTVSS
VL: SYVLTQPPAVSGTPGQRVTISCSGSDSNIGRRSVNWYQQFPGTAPKLLIYSNDQRPSVVPDRFSGSKSGTSASLAISGLQSEDEAEYYCAAWDDSLKGWVFGGGTQLTVL
notes: Kabat numbering; source: Expi293F, co-transfected, purified (CaptureSelect CH1-XL)
B4: CR9114 gHC Fab VL A96F (Fab, V domains shown)
VH: QVQLVQSGAEVKKPGSSVKVSCKASGGTFSSYAISWVRQAPGQGLEWMGGIIPIFGTANYAQKFQGRVTITADKSTSTAYMELSSLRSEDTAVYYCARHGNYYYYYGMDVWGQGTTVTVSS
VL: SYVLTQPPAVSGTPGQRVTISCSGSDSNIGRRSVNWYQQFPGTAPKLLIYSNDQRPSVVPDRFSGSKSGTSASLAISGLQSEDEAEYYCAAWDDSLKGFVFGGGTQLTVL
notes: as for B3
B5: CR9114 gHC Fab VL W91T (Fab, V domains shown)
VH: QVQLVQSGAEVKKPGSSVKVSCKASGGTFSSYAISWVRQAPGQGLEWMGGIIPIFGTANYAQKFQGRVTITADKSTSTAYMELSSLRSEDTAVYYCARHGNYYYYYGMDVWGQGTTVTVSS
VL: SYVLTQPPAVSGTPGQRVTISCSGSDSNIGRRSVNWYQQFPGTAPKLLIYSNDQRPSVVPDRFSGSKSGTSASLAISGLQSEDEAEYYCAATDDSLKGAVFGGGTQLTVL
notes: as for B3
B6: CR9114 gHC Fab VL W91R (Fab, V domains shown)
VH: QVQLVQSGAEVKKPGSSVKVSCKASGGTFSSYAISWVRQAPGQGLEWMGGIIPIFGTANYAQKFQGRVTITADKSTSTAYMELSSLRSEDTAVYYCARHGNYYYYYGMDVWGQGTTVTVSS
VL: SYVLTQPPAVSGTPGQRVTISCSGSDSNIGRRSVNWYQQFPGTAPKLLIYSNDQRPSVVPDRFSGSKSGTSASLAISGLQSEDEAEYYCAARDDSLKGAVFGGGTQLTVL
notes: as for B3
B7: CR9114 gHC Fab VL W91A (Fab, V domains shown)
VH: QVQLVQSGAEVKKPGSSVKVSCKASGGTFSSYAISWVRQAPGQGLEWMGGIIPIFGTANYAQKFQGRVTITADKSTSTAYMELSSLRSEDTAVYYCARHGNYYYYYGMDVWGQGTTVTVSS
VL: SYVLTQPPAVSGTPGQRVTISCSGSDSNIGRRSVNWYQQFPGTAPKLLIYSNDQRPSVVPDRFSGSKSGTSASLAISGLQSEDEAEYYCAAADDSLKGAVFGGGTQLTVL
notes: as for B3
B8: CR9114 gHC Fab VL A96Y (Fab, V domains shown)
VH: QVQLVQSGAEVKKPGSSVKVSCKASGGTFSSYAISWVRQAPGQGLEWMGGIIPIFGTANYAQKFQGRVTITADKSTSTAYMELSSLRSEDTAVYYCARHGNYYYYYGMDVWGQGTTVTVSS
VL: SYVLTQPPAVSGTPGQRVTISCSGSDSNIGRRSVNWYQQFPGTAPKLLIYSNDQRPSVVPDRFSGSKSGTSASLAISGLQSEDEAEYYCAAWDDSLKGYVFGGGTQLTVL
notes: as for B3

Assays:
mini-HA #4900 protein = mini-HA #4900 protein (Designed influenza A H1 HA stem #4900 …, stabilised, biotin at the BirA biotinylation site, conjugated to streptavidin-PE (for the yeast display assays only)); test: BLI; conditions: both partners purified
[1] = target: HA protein from H1N1 A/Solomon Islands/3/2006 (Influenza A virus (A/Solomon …, UniProt A7Y8I1, strain)); test: BLI; conditions: both partners purified

Binder	binding result [1]	further results
B1	–	Kd (mini-HA #4900 protein): 0.69 nM
B2	–	Kd [1]: 2600 nM
B3	no binding (tested: 300 nM)	–
B4	no binding (tested: 300 nM)	–
B5	no binding (tested: 300 nM)	–
B6	no binding (tested: 300 nM)	–
B7	no binding (tested: 300 nM)	–
B8	no binding (tested: 300 nM)	–
